B1: mRNA-splicing (parent)
chain: AGUUGCUGCUGGGAGCUCCAGCACAGUGAAAUGGACAGAAGGGCAGAGCAA

Variants of: B1
Assay: exon inclusion enrichment index; higher = more inclusion; WT1 exon 5 minigene, HEK293

Variant	exon inclusion enrichment index
G5C C6A U7C G8U C9G U10A	0.381
G5C C6A U7C G8U C9U U10A	0.0134
G5C C6A U7C G8U U10A	0.146
G5C C6A U7C U10A	0.259
G5C C6A U7C U10C	3.16
G5C C6A U7G C9A	0.352
G5C C6A U7G G8A U10A	0.0223
G5C C6A U7G G8C C9U U10C	1.36
G5C C6A U7G G8C U10A	0.0276
G5C C6A U7G G8U U10A	0.00932
G5C C6A U7G U10A	0.0115
G5C C6A U7G U10C	0.429
G5C C6A U10A	0.116
G5C C6A U10C	1.97
G5C C6G	0.0268
G5C C6G G8A U10A	0.226
G5C C6G G8A U10C	2.37
G5C C6G G8C C9U U10C	3.14
G5C C6G G8C U10C	3.08
G5C C6G G8U C9U	1.08
G5C C6G G8U U10C	2.67
G5C C6G U7A C9A U10A	0.95
G5C C6G U7A G8A U10A	0.321
G5C C6G U7A G8A U10C	2.49

Variant	exon inclusion enrichment index
G5C C6G U7A G8C C9U U10C	3.05
G5C C6G U7A G8C U10C	2.57
G5C C6G U7A G8U C9A	1.06
G5C C6G U7A G8U U10C	2.93
G5C C6G U7A U10C	2.53
G5C C6G U7C	0.636
G5C C6G U7C C9A	2.73
G5C C6G U7C C9A U10A	1.93
G5C C6G U7C C9A U10C	4
G5C C6G U7C C9A U10G	1.77
G5C C6G U7C C9G	1.96
G5C C6G U7C C9G U10A	2.85
G5C C6G U7C C9G U10C	2.62
G5C C6G U7C C9G U10G	0.749
G5C C6G U7C C9U	2.47
G5C C6G U7C C9U U10A	0.144
G5C C6G U7C C9U U10C	3.88
G5C C6G U7C C9U U10G	1.02
G5C C6G U7C G8A C9A U10C	3.14
G5C C6G U7C G8A C9G U10C	2.31
G5C C6G U7C G8A C9U U10C	3.11
G5C C6G U7C G8A U10A	0.449
G5C C6G U7C G8A U10C	3.31
G5C C6G U7C G8C C9A U10C	3.14

Variant	exon inclusion enrichment index
G5C C6G U7C G8C C9G U10C	3.59
G5C C6G U7C G8C C9U U10C	2.8
G5C C6G U7C G8C U10C	2.87
G5C C6G U7C G8U C9A U10C	2.74
G5C C6G U7C G8U C9G U10C	2.53
G5C C6G U7C G8U C9U U10C	2.82
G5C C6G U7C G8U U10C	2.76
G5C C6G U7C G11A	0.993
G5C C6G U7C G11C	2.28
G5C C6G U7C G11U	2.67
G5C C6G U7C U10A	1.02
G5C C6G U7C U10A G11A	2.25
G5C C6G U7C U10A G11C	3.41
G5C C6G U7C U10A G11U	3.26
G5C C6G U7C U10C	3.75
G5C C6G U7C U10C A14C	1.99
G5C C6G U7C U10C A14C G15A	1.07
G5C C6G U7C U10C A14C G15C	1.16
G5C C6G U7C U10C A14C G15U	1.33
G5C C6G U7C U10C A14G	1.93
G5C C6G U7C U10C A14G G15A	2.07
G5C C6G U7C U10C A14G G15C	1.64
G5C C6G U7C U10C A14G G15U	1.21
G5C C6G U7C U10C A14U	1.05

Variant	exon inclusion enrichment index
G5C C6G U7C U10C A14U G15A	1.41
G5C C6G U7C U10C A14U G15C	1.8
G5C C6G U7C U10C A14U G15U	1.46
G5C C6G U7C U10C A20C	3.4
G5C C6G U7C U10C A20C G21A	1.97
G5C C6G U7C U10C A20C G21C	2.03
G5C C6G U7C U10C A20C G21U	2.17
G5C C6G U7C U10C A20G	0.887
G5C C6G U7C U10C A20G G21A	3.62
G5C C6G U7C U10C A20G G21C	2.95
G5C C6G U7C U10C A20G G21U	2.65
G5C C6G U7C U10C A20U	3.58
G5C C6G U7C U10C A20U G21A	2.15
G5C C6G U7C U10C A20U G21C	2.93
G5C C6G U7C U10C A20U G21U	2.35
G5C C6G U7C U10C A23C	2.88
G5C C6G U7C U10C A23C C24A	3.49
G5C C6G U7C U10C A23C C24G	5.29
G5C C6G U7C U10C A23C C24U	2.07
G5C C6G U7C U10C A23G	3.57
G5C C6G U7C U10C A23G C24A	4.41
G5C C6G U7C U10C A23G C24G	4.88
G5C C6G U7C U10C A23G C24U	1.96
G5C C6G U7C U10C A23U	2.51

Variant	exon inclusion enrichment index
G5C C6G U7C U10C A23U C24A	2.3
G5C C6G U7C U10C A23U C24G	3.71
G5C C6G U7C U10C A23U C24U	0.822
G5C C6G U7C U10C A25C	4.98
G5C C6G U7C U10C A25C G26A	4.67
G5C C6G U7C U10C A25C G26C	4.35
G5C C6G U7C U10C A25C G26U	4.06
G5C C6G U7C U10C A25G	5.05
G5C C6G U7C U10C A25G G26A	5.6
G5C C6G U7C U10C A25G G26C	4.8
G5C C6G U7C U10C A25G G26U	4.09
G5C C6G U7C U10C A25U	3.84
G5C C6G U7C U10C A25U G26A	3.89
G5C C6G U7C U10C A25U G26C	3.41
G5C C6G U7C U10C A25U G26U	3.03
G5C C6G U7C U10C A29C	3.11
G5C C6G U7C U10C A29C A30C	3.82
G5C C6G U7C U10C A29C A30G	5.17
G5C C6G U7C U10C A29C A30U	3.02
G5C C6G U7C U10C A29G	3.72
G5C C6G U7C U10C A29G A30C	2.29
G5C C6G U7C U10C A29G A30G	3.01
G5C C6G U7C U10C A29G A30U	1.79
G5C C6G U7C U10C A29U	1.68

Variant	exon inclusion enrichment index
G5C C6G U7C U10C A29U A30C	3.05
G5C C6G U7C U10C A29U A30G	3.83
G5C C6G U7C U10C A29U A30U	1.81
G5C C6G U7C U10C A30C	3.57
G5C C6G U7C U10C A30C A31C	3.86
G5C C6G U7C U10C A30C A31G	4.15
G5C C6G U7C U10C A30C A31U	3.41
G5C C6G U7C U10C A30G	3.89
G5C C6G U7C U10C A30G A31C	0.674
G5C C6G U7C U10C A30G A31G	1.71
G5C C6G U7C U10C A30G A31U	1.7
G5C C6G U7C U10C A30U	3.07
G5C C6G U7C U10C A30U A31C	3.11
G5C C6G U7C U10C A30U A31G	3.75
G5C C6G U7C U10C A30U A31U	3.18
G5C C6G U7C U10C A31C	3.8
G5C C6G U7C U10C A31C U32A	2.89
G5C C6G U7C U10C A31C U32C	3.85
G5C C6G U7C U10C A31C U32G	3.82
G5C C6G U7C U10C A31G	3.79
G5C C6G U7C U10C A31G U32A	5.21
G5C C6G U7C U10C A31G U32C	4.5
G5C C6G U7C U10C A31G U32G	2.67
G5C C6G U7C U10C A31U	3.18

Variant	exon inclusion enrichment index
G5C C6G U7C U10C A31U U32A	0.77
G5C C6G U7C U10C A31U U32C	3.76
G5C C6G U7C U10C A31U U32G	2.24
G5C C6G U7C U10C A35C	1.69
G5C C6G U7C U10C A35C C36A	2.13
G5C C6G U7C U10C A35C C36G	2.6
G5C C6G U7C U10C A35C C36U	0.625
G5C C6G U7C U10C A35G	1.93
G5C C6G U7C U10C A35G C36A	2.07
G5C C6G U7C U10C A35G C36G	0.751
G5C C6G U7C U10C A35G C36U	0.0687
G5C C6G U7C U10C A35U	1.25
G5C C6G U7C U10C A35U C36A	0.0112
G5C C6G U7C U10C A35U C36G	0.445
G5C C6G U7C U10C A35U C36U	0.0671
G5C C6G U7C U10C A37C	4.16
G5C C6G U7C U10C A37C G38A	2.71
G5C C6G U7C U10C A37C G38C	2.99
G5C C6G U7C U10C A37C G38U	2.1
G5C C6G U7C U10C A37G	4.39
G5C C6G U7C U10C A37G G38A	2.92
G5C C6G U7C U10C A37G G38C	3.22
G5C C6G U7C U10C A37G G38U	1.81
